Read-outs that look alike come from different tables or passages of the source.
Legend:
Test in all cases: cross-linking
[1] = molecular target: A. aegypti GPA2-FLAG (Aedes aegypti) (UniProt C6SUP2)
[2] = molecular target: A. aegypti GPA2-FLAG (Aedes aegypti) (UniProt C6SUP2); remark: listed apart in the source
[3] = molecular target: A. aegypti GPA2-His (Aedes aegypti) (UniProt C6SUP2)
[4] = molecular target: the molecule itself
[5] = molecular target: the molecule itself; remark: listed apart in the source

“A. aegypti GPA2-FLAG (from UniProt C6SUP2 1-120) (natural protein)” gave a stoichiometry N [1] of 2 and a stoichiometry N [2] of 2.

Work on “A. aegypti GPA2-His (from UniProt C6SUP2 1-120) (natural protein)” yielded a stoichiometry N [3] of 2.

B1: H. sapiens GPA2-FLAG (natural protein, UniProt Q96T91 24-129, looked up)
chain: QEAVIPGCHLHPFNVTVRSDRQGTCQGSHVAQACVGHCESSAFPSRYSVLVASGYRHNITSVSQCCTISGLKKVKVQLQCVGSRREELEIFTARACQCDMCRLSRY
For B1, the “stoichiometry N” value [4] was 2.

B2: A. aegypti GPB5-His (natural protein, Aedes aegypti, UniProt C6SUR0 1-162, looked up)
chain: VEDSLFISGFEKKAPMLGCHKRVFTYRISQADSKGRECWDHVSVWSCHGRCDSNEISDWRFPYKRSHHPVCMHAGRTRSVATLRHCHPEADAEAKLYEYMEPKSCSCQTCTSMDTSCEGPKQLSTDAATKIFQIDDEEIESEYA
B2 was tested, and the “stoichiometry N” value [5] was 2.

B3: H. sapiens GPB5-His (natural protein, UniProt Q86YW7 25-130, looked up)
chain: ASSGNLRTFVGCAVREFTFLAKKPGCRGLRITTDACWGRCETWEKPILEPPYIEAHHRVCTYNETKQVTVKLPNCAPGVDPFYTYPVAIRCDCGACSTATTECETI
In the case of B3, the “stoichiometry N” value [4] is reported as 2.
